Earlier results, collected in article PMC7843923.

Assays:
Unc5D = Unc5D (UniProt Q6UXZ4)
Latrophilin3 = Latrophilin3 (UniProt Q9HAR2)
UniProt Q9HAR2, sequence (Q9HAR2 20-862): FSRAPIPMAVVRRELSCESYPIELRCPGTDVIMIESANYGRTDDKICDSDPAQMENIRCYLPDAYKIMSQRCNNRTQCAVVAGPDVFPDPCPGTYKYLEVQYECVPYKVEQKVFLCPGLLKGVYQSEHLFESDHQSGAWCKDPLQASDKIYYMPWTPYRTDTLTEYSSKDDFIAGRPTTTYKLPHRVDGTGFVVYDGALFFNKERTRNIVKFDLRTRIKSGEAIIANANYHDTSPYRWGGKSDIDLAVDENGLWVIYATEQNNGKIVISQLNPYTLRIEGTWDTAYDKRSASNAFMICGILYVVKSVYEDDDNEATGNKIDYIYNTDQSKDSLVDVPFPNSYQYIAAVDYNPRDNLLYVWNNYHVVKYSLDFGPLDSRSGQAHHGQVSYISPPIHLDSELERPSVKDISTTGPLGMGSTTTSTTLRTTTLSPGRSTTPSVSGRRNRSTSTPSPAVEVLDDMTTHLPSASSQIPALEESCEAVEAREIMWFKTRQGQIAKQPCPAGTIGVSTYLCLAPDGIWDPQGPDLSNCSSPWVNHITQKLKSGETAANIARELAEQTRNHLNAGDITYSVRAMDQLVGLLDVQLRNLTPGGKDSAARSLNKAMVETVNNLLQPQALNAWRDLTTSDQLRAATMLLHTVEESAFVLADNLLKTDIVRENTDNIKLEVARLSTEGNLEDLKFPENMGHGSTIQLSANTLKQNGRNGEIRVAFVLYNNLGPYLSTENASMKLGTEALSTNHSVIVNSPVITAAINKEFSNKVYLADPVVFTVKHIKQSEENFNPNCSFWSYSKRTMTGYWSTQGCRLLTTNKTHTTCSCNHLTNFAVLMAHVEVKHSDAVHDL

UniProt Q6UXZ4, sequence (Q6UXZ4 33-379): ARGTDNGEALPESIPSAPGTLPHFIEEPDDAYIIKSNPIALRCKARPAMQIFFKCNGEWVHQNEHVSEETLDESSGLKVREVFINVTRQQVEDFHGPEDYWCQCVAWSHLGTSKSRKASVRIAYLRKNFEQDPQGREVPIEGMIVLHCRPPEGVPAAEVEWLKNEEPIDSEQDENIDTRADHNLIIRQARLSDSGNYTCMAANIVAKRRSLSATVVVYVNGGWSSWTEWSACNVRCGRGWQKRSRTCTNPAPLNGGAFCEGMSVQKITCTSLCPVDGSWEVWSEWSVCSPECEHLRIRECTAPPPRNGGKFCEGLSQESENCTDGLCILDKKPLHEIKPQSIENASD

Kd (Unc5D) | Kd (Latrophilin3) | Substance
0.31 µM | – | FLRT2 (from UniProt O43155)
– | 0.04 µM | FLRT (from UniProt Q9NZU0)
